Data set [1] deals with HeLa Kyoto. The data set can be described thus: thermal stability score vs G1/S (z-score of summed log2 fold changes over temperatures); higher = more thermally stable than in G1/S.
The test system of data set [2] is HeLa Kyoto. The data set can be described thus: melting temperature (median over replicates), in situ; higher = more thermally stable.
The subject of data set [3] is HeLa Kyoto. Nature of the data set: solubility in G1/S (NP-40 vs SDS abundance) (log2 ratio); higher = more soluble. The following applies: cell cycle stage: G1/S.
In data set [4] the test system is HeLa Kyoto. The data set can be described thus: solubility change mitosis vs G1/S (difference of NP-40 vs SDS log2 ratios) (log2 ratio difference); higher = more soluble in mitosis.
Where [5] appears, read: cell cycle stage: early G1 (4.5 h after nocodazole release).

Eight sequences from the supplement of paper PMC5998384 can be followed below.
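Wherever melting temperature (median over replicates), in situ is given: HeLa Kyoto cells synchronized by double thymidine or nocodazole block, proteins quantified by TMT10plex mass spectrometry, three independent biological replicates.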
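Wherever solubility change mitosis vs G1/S (difference of NP-40 vs SDS log2 ratios) is given: synchronized HeLa Kyoto cells (double thymidine block for G1/S, nocodazole release for mitosis), protein amounts in NP-40 versus SDS lysates quantified by mass spectrometry, three biological replicates.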
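Wherever solubility in G1/S (NP-40 vs SDS abundance) is given: HeLa Kyoto cells arrested at G1/S by double thymidine block, proteins quantified by TMT10plex mass spectrometry in mild NP-40 versus SDS extracts, three biological replicates.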
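Wherever thermal stability score vs G1/S (z-score of summed log2 fold changes over temperatures) is given: synchronized HeLa Kyoto cells, proteins quantified by TMT10plex mass spectrometry, three biological replicates, mitosis taken 0.5 h after nocodazole release, G1/S directly after double thymidine block.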

As for “MSCINLPTVLPGSPSKTRGQIQVILGPMFSGKSTELMRRVRRFQIAQYKCLVIKYAKDTRYSSSFCTHDRNTMEALPACLLRDVAQEALGVAVIGIDEGQFFPDIVEFCEAMANAGKTVIVAALDGTFQRKPFGAILNLVPLAESVVKLTAVCMECFREAAYTKRLGTEKEVEVIGGADKYHSVCRLCYFKKASGQPAGPDNKENCPVPGKPGEAVAARKLFAPQQILQCSPAN [TK1]”, the results for the thermal stability score in the data set on HeLa Kyoto [1] (setting [5]) and in the data set with HeLa Kyoto [1] (cell cycle stage: mitosis) were -4.01 and -1.09, respectively. Also, the melting temperature in the data set with HeLa Kyoto [2] (cell cycle stage: G1/S) was determined as 56.1 °C; in the data set on HeLa Kyoto [2] (cell cycle stage: mitosis) it was 57.3 °C. Besides, the “solubility in G1/S (log2)” value with HeLa Kyoto [3] amounted to 0.28. In addition, the “solubility change mitosis (log2)” value with HeLa Kyoto [4] is -0.138.
Take “MSDAAVDTSSEITTKDLKEKKEVVEEAENGRDAPANGNAENEENGEQEADNEVDEEEEEGGEEEEEEEEGDGEEEDGDEDEEAESATGKRAAEDDEDDDVDTKKQKTDEDD [PTMA]”: the thermal stability score is -0.717 in the data set on HeLa Kyoto [1] (setting [5]) and -1.69 in the data set on HeLa Kyoto [1] (cell cycle stage: mitosis). Further, the melting temperature was determined as 54.9 °C with HeLa Kyoto [2] (cell cycle stage: G1/S) and 55.1 °C with HeLa Kyoto [2] (cell cycle stage: mitosis). Besides, in the data set on HeLa Kyoto [3], the “solubility in G1/S (log2)” value was -1.5. In addition, the “solubility change mitosis (log2)” value with HeLa Kyoto [4] was -0.00535.
“MSDDDSRASTSSSSSSSSNQQTEKETNTPKKKESKVSMSKNSKLLSTSAKRIQKELADITLDPPPNCSAGPKGDNIYEWRSTILGPPGSVYEGGVFFLDITFTPEYPFKPPKVTFRTRIYHCNINSQGVICLDILKDNWSPALTISKVLLSICSLLTDCNPADPLVGSIATQYMTNRAEHDRMARQWTKRYAT [UBE2E1]”: the thermal stability score in the data set on HeLa Kyoto [1] (setting [5]) was determined as 1.73; in the data set with HeLa Kyoto [1] (cell cycle stage: mitosis) it was 3.2. The melting temperature stood at 48.5 °C in the data set with HeLa Kyoto [2] (cell cycle stage: G1/S) and 49.5 °C with HeLa Kyoto [2] (cell cycle stage: mitosis). In the data set with HeLa Kyoto [3], the “solubility in G1/S (log2)” value was 0.338. In the data set with HeLa Kyoto [4], the “solubility change mitosis (log2)” value was -0.151.
Consider “MSDEGSRGSRLPLALPPASQGCSSGGGGGGSSAGGSGNSRPPRNLQGLLQMAITAGSEEPDPPPEPMSEERRQWLQEAMSAAFRGQREEVEQMKSCLRVLSQPMPPTAGEAEQAADQQEREGALELLADLCENMDNAADFCQLSGMHLLVGRYLEAGAAGLRWRAAQLIGTCSQNVAAIQEQVLGLGALRKLLRLLDRDACDTVRVKALFAISCLVREQEAGLLQFLRLDGFSVLMRAMQQQVQKLKVKSAFLLQNLLVGHPEHKGTLCSMGMVQQLVALVRTEHSPFHEHVLGALCSLVTDFPQGVRECREPELGLEELLRHRCQLLQQHEEYQEELEFCEKLLQTCFSSPADDSMDR [HSPBP1]”, for which the thermal stability score with HeLa Kyoto [1] (setting [5]) worked out at 0.863; in the data set with HeLa Kyoto [1] (cell cycle stage: mitosis) it was 0.675. Besides, the melting temperature in the data set on HeLa Kyoto [2] (cell cycle stage: G1/S) is 50.8 °C; in the data set on HeLa Kyoto [2] (cell cycle stage: mitosis), 51.2 °C. The “solubility in G1/S (log2)” value in the data set on HeLa Kyoto [3] is 0.303. For the same sequence, the “solubility change mitosis (log2)” value in the data set on HeLa Kyoto [4] came out at 0.0712.
“MSDEREVAEAATGEDASSPPPKTEAASDPQHPAASEGAAAAAASPPLLRCLVLTGFGGYDKVKLQSRPAAPPAPGPGQLTLRLRACGLNFADLMARQGLYDRLPPLPVTPGMEGAGVVIAVGEGVSDRKAGDRVMVLNRSGMWQEEVTVPSVQTFLIPEAMTFEEAAALLVNYITAYMVLFDFGNLQPGHSVLVHMAAGGVGMAAVQLCRTVENVTVFGTASASKHEALKENGVTHPIDYHTTDYVDEIKKISPKGVDIVMDPLGGSDTAKGYNLLKPMGKVVTYGMANLLTGPKRNLMALARTWWNQFSVTALQLLQANRAVCGFHLGYLDGEVELVSGVVARLLALYNQGHIKPHIDSVWPFEKVADAMKQMQEKKNVGKVLLVPGPEKEN [VAT1]”: the thermal stability score is -0.577 in the data set on HeLa Kyoto [1] (setting [5]) and -3.49 in the data set with HeLa Kyoto [1] (cell cycle stage: mitosis). The figures for the melting temperature in the data set with HeLa Kyoto [2] (cell cycle stage: G1/S) and in the data set with HeLa Kyoto [2] (cell cycle stage: mitosis) were 55.9 °C and 55.3 °C, respectively. Also, the “solubility in G1/S (log2)” value in the data set on HeLa Kyoto [3] is 0.232. For the same sequence, the “solubility change mitosis (log2)” value in the data set on HeLa Kyoto [4] was -0.125.
“MSDKLPYKVADIGLAAWGRKALDIAENEMPGLMRMRERYSASKPLKGARIAGCLHMTVETAVLIETLVTLGAEVQWSSCNIFSTQDHAAAAIAKAGIPVYAWKGETDEEYLWCIEQTLYFKDGPLNMILDDGGDLTNLIHTKYPQLLPGIRGISEETTTGVHNLYKMMANGILKVPAINVNDSVTKSKFDNLYGCRESLIDGIKRATDVMIAGKVAVVAGYGDVGKGCAQALRGFGARVIITEIDPINALQAAMEGYEVTTMDEACQEGNIFVTTTGCIDIILGRHFEQMKDDAIVCNIGHFDVEIDVKWLNENAVEKVNIKPQVDRYRLKNGRRIILLAEGRLVNLGCAMGHPSFVMSNSFTNQVMAQIELWTHPDKYPVGVHFLPKKLDEAVAEAHLGKLNVKLTKLTEKQAQYLGMSCDGPFKPDHYRY [AHCY]”: the values for the thermal stability score in the data set on HeLa Kyoto [1] (setting [5]) and with HeLa Kyoto [1] (cell cycle stage: mitosis) were -2.93 and -2.39, respectively. The melting temperature with HeLa Kyoto [2] (cell cycle stage: G1/S) is 58.9 °C; in the data set on HeLa Kyoto [2] (cell cycle stage: mitosis) it was 59.3 °C. Also, the “solubility in G1/S (log2)” value in the data set with HeLa Kyoto [3] was found to be 0.0748. Also, the “solubility change mitosis (log2)” value in the data set on HeLa Kyoto [4] is -0.0568.
Consider “MSDLLLLGLIGGLTLLLLLTLLAFAGYSGLLAGVEVSAGSPPIRNVTVAYKFHMGLYGETGRLFTESCSISPKLRSIAVYYDNPHMVPPDKCRCAVGSILSEGEESPSPELIDLYQKFGFKVFSFPAPSHVVTATFPYTTILSIWLATRRVHPALDTYIKERKLCAYPRLEIYQEDQIHFMCPLARQGDFYVPEMKETEWKWRGLVEAIDTQVDGTGADTMSDTSSVSLEVSPGSRETSAATLSPGASSRGWDDGDTRSEHSYSESGASGSSFEELDLEGEGPLGESRLDPGTEPLGTTKWLWEPTAPEKGKE [TEX264]”, for which the thermal stability score was 0.0754 with HeLa Kyoto [1] (setting [5]) and -0.347 with HeLa Kyoto [1] (cell cycle stage: mitosis). Further, the melting temperature in the data set on HeLa Kyoto [2] (cell cycle stage: G1/S) and in the data set on HeLa Kyoto [2] (cell cycle stage: mitosis) was 51.2 °C throughout. Also, the “solubility in G1/S (log2)” value in the data set with HeLa Kyoto [3] is -0.0622. In addition, the “solubility change mitosis (log2)” value in the data set on HeLa Kyoto [4] was -0.257.
For “MSDNGELEDKPPAPPVRMSSTIFSTGGKDPLSANHSLKPLPSVPEEKKPRHKIISIFSGTEKGSKKKEKERPEISPPSDFEHTIHVGFDAVTGEFTGMPEQWARLLQTSNITKLEQKKNPQAVLDVLKFYDSNTVKQKYLSFTPPEKDGFPSGTPALNAKGTEAPAVVTEEEDDDEETAPPVIAPRPDHTKSIYTRSVIDPVPAPVGDSHVDGAAKSLDKQKKKTKMTDEEIMEKLRTIVSIGDPKKKYTRYEKIGQGASGTVFTATDVALGQEVAIKQINLQKQPKKELIINEILVMKELKNPNIVNFLDSYLVGDELFVVMEYLAGGSLTDVVTETCMDEAQIAAVCRECLQALEFLHANQVIHRDIKSDNVLLGMEGSVKLTDFGFCAQITPEQSKRSTMVGTPYWMAPEVVTRKAYGPKVDIWSLGIMAIEMVEGEPPYLNENPLRALYLIATNGTPELQNPEKLSPIFRDFLNRCLEMDVEKRGSAKELLQHPFLKLAKPLSSLTPLIMAAKEAMKSNR [PAK2]”, the thermal stability score in the data set with HeLa Kyoto [1] (setting [5]) was -1.97; in the data set with HeLa Kyoto [1] (cell cycle stage: mitosis) it was -1.45. Also, the melting temperature with HeLa Kyoto [2] (cell cycle stage: G1/S) turned out to be 54.9 °C; with HeLa Kyoto [2] (cell cycle stage: mitosis), 54.6 °C. Also, in the data set on HeLa Kyoto [3], the “solubility in G1/S (log2)” value amounted to 0.152. The “solubility change mitosis (log2)” value in the data set on HeLa Kyoto [4] is -0.119.
